System: Escherichia coli TOP10
Experiment: shrunken log2 fold change of peptide-encoding DNA abundance (4.5 h post-induction vs induction); higher = less antimicrobial activity (less host growth inhibition)
Details: time post-induction: 4.5 h; library: site-saturation at positions 5, 18, 19, 20
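Further: peptides expressed intracellularly from a pBAD plasmid library in pooled LB shake-flask culture, induced with 0.3% L-arabinose, DNA abundance read by NGS, three biological replicates, DESeq2 with apeglm shrinkage.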

Row | Sequence | shrunken log2 fold change
1 | RRIRWRPPRLPRPRPRPRTKPRP | 1.88
2 | RRIRTRPPRLPRPRPRPKTKPRP | -0.212
3 | RRIRWRPPRLPRPRPRPYDPPRP | -0.126
4 | RRIRERPPRLPRPRPRPLTRPRP | 0.167
5 | RRIRCRPPRLPRPRPRPDTCPRP | -0.0965
6 | RRIRERPPRLPRPRPRPRHMPRP | -0.0855
7 | RRIRYRPPRLPRPRPRPKTHPRP | -0.661
8 | RRIRKRPPRLPRPRPRPCCCPRP | 0.415
9 | RRIRTRPPRLPRPRPRPSEEPRP | 0.0771
10 | RRIRTRPPRLPRPRPRPHTYPRP | -0.296
11 | RRIRKRPPRLPRPRPRPHGSPRP | -0.0695
12 | RRIRVRPPRLPRPRPRPIREPRP | -0.152
13 | RRIRERPPRLPRPRPRPGAVPRP | 1.45
14 | RRIRSRPPRLPRPRPRPGLSPRP | 0.245
15 | RRIRARPPRLPRPRPRPQEHPRP | 0.515
16 | RRIRCRPPRLPRPRPRPQTMPRP | -0.349
17 | RRIRLRPPRLPRPRPRPTENPRP | -0.171
18 | RRIRYRPPRLPRPRPRPRRYPRP | -0.492
19 | RRIRRRPPRLPRPRPRPHKRPRP | 0.124
20 | RRIRRRPPRLPRPRPRPKYIPRP | -0.135
21 | RRIRDRPPRLPRPRPRPSYEPRP | 0.175
22 | RRIRTRPPRLPRPRPRPAGRPRP | 0.352

Row | Sequence | shrunken log2 fold change
23 | RRIRTRPPRLPRPRPRPRKGPRP | 0.333
24 | RRIRRRPPRLPRPRPRPVGSPRP | 0.432
25 | RRIRWRPPRLPRPRPRPVAIPRP | -0.0829
26 | RRIRCRPPRLPRPRPRPYGKPRP | -0.307
27 | RRIRHRPPRLPRPRPRPPGFPRP | 0.011
28 | RRIRARPPRLPRPRPRPWRYPRP | -0.163
29 | RRIRKRPPRLPRPRPRPRPWPRP | 0.947
30 | RRIRKRPPRLPRPRPRPQVCPRP | 0.138
31 | RRIRPRPPRLPRPRPRPKYKPRP | -0.39
32 | RRIRYRPPRLPRPRPRPGNPPRP | -0.377
33 | RRIRNRPPRLPRPRPRPARIPRP | -0.0767
34 | RRIRPRPPRLPRPRPRPRFFPRP | 0.211
35 | RRIRLRPPRLPRPRPRPYQSPRP | -0.524
36 | RRIRKRPPRLPRPRPRPCGIPRP | 0.0772
37 | RRIRTRPPRLPRPRPRPMNSPRP | -0.191
38 | RRIRSRPPRLPRPRPRPTDYPRP | -0.66
39 | RRIRTRPPRLPRPRPRPKQHPRP | 0.119
40 | RRIRGRPPRLPRPRPRPAFQPRP | 0.202
41 | RRIRYRPPRLPRPRPRPQIFPRP | 0.0295
42 | RRIRMRPPRLPRPRPRPLRLPRP | 0.959
43 | RRIRLRPPRLPRPRPRPSMIPRP | -1.02
44 | RRIRWRPPRLPRPRPRPQVHPRP | 0.0992

Row | Sequence | shrunken log2 fold change
45 | RRIRVRPPRLPRPRPRPNEQPRP | -0.232
46 | RRIRMRPPRLPRPRPRPMYEPRP | 0.221
47 | RRIRIRPPRLPRPRPRPNHQPRP | -0.164
48 | RRIRARPPRLPRPRPRPAMQPRP | 0.723
49 | RRIRCRPPRLPRPRPRPCEKPRP | 0.0534
50 | RRIRMRPPRLPRPRPRPNKWPRP | 0.079
51 | RRIRKRPPRLPRPRPRPTVCPRP | 0.765
52 | RRIRWRPPRLPRPRPRPFWMPRP | -0.235
53 | RRIRSRPPRLPRPRPRPESLPRP | 0.0154
54 | RRIRSRPPRLPRPRPRPILLPRP | -0.334
55 | RRIRTRPPRLPRPRPRPVIKPRP | -0.237
56 | RRIRWRPPRLPRPRPRPMSKPRP | -0.133
57 | RRIRERPPRLPRPRPRPHFRPRP | -0.624
58 | RRIRKRPPRLPRPRPRPCAMPRP | 0.367
59 | RRIRGRPPRLPRPRPRPFCFPRP | 0.778
60 | RRIRERPPRLPRPRPRPNWQPRP | 0.103
61 | RRIRGRPPRLPRPRPRPSGKPRP | 0.367
62 | RRIRCRPPRLPRPRPRPWIYPRP | -0.821
63 | RRIRTRPPRLPRPRPRPYSLPRP | -0.186
64 | RRIRQRPPRLPRPRPRPLVRPRP | 0.0989
65 | RRIRYRPPRLPRPRPRPDHLPRP | -0.00968
66 | RRIRLRPPRLPRPRPRPWVSPRP | 0.442

Row | Sequence | shrunken log2 fold change
67 | RRIRVRPPRLPRPRPRPTSKPRP | -0.144
68 | RRIRFRPPRLPRPRPRPNQDPRP | -0.361
69 | RRIRIRPPRLPRPRPRPQIIPRP | -0.213
70 | RRIRNRPPRLPRPRPRPERMPRP | -0.0351
71 | RRIRTRPPRLPRPRPRPFNDPRP | -0.136
72 | RRIRQRPPRLPRPRPRPMKLPRP | 0.00355
73 | RRIRFRPPRLPRPRPRPNDYPRP | -0.355
74 | RRIRFRPPRLPRPRPRPYDDPRP | -0.0579
75 | RRIRCRPPRLPRPRPRPDMEPRP | 0.000584
76 | RRIRPRPPRLPRPRPRPLHSPRP | -0.207
77 | RRIRERPPRLPRPRPRPPNIPRP | -0.207
78 | RRIRYRPPRLPRPRPRPMITPRP | -0.386
79 | RRIRGRPPRLPRPRPRPREVPRP | 1.05
80 | RRIRDRPPRLPRPRPRPRTPPRP | 0.17
81 | RRIRRRPPRLPRPRPRPDVEPRP | 0.0547
82 | RRIRIRPPRLPRPRPRPIYLPRP | -0.811
83 | RRIRTRPPRLPRPRPRPVHYPRP | 0.0226
84 | RRIRTRPPRLPRPRPRPWCDPRP | -0.596
85 | RRIRARPPRLPRPRPRPANYPRP | -0.122
86 | RRIRQRPPRLPRPRPRPIAIPRP | 0.00329
87 | RRIRLRPPRLPRPRPRPIHVPRP | -0.0124
88 | RRIRYRPPRLPRPRPRPKCDPRP | -0.529

Row | Sequence | shrunken log2 fold change
89 | RRIRNRPPRLPRPRPRPMIGPRP | -0.536
90 | RRIRARPPRLPRPRPRPVMMPRP | 0.0914
91 | RRIRIRPPRLPRPRPRPTHFPRP | -0.0417
92 | RRIRNRPPRLPRPRPRPIVSPRP | -0.00673
93 | RRIRSRPPRLPRPRPRPIPEPRP | 0.208
94 | RRIRSRPPRLPRPRPRPPEGPRP | 0.704
95 | RRIRNRPPRLPRPRPRPEQIPRP | -0.0196
96 | RRIRERPPRLPRPRPRPIQWPRP | 0.0338
97 | RRIRGRPPRLPRPRPRPHNYPRP | -0.248
98 | RRIRTRPPRLPRPRPRPLSTPRP | -0.386
99 | RRIRIRPPRLPRPRPRPAIDPRP | -0.239
100 | RRIRVRPPRLPRPRPRPGCNPRP | -0.216
101 | RRIRKRPPRLPRPRPRPVFAPRP | 2.02
102 | RRIRVRPPRLPRPRPRPYMWPRP | -0.48
103 | RRIRMRPPRLPRPRPRPLQIPRP | -0.343
104 | RRIRVRPPRLPRPRPRPKPEPRP | 0.326
105 | RRIRMRPPRLPRPRPRPKNQPRP | 0.618
106 | RRIRNRPPRLPRPRPRPLRNPRP | 0.267
107 | RRIRLRPPRLPRPRPRPIENPRP | 0.0407
108 | RRIRMRPPRLPRPRPRPNDHPRP | -0.0869
109 | RRIRQRPPRLPRPRPRPIYNPRP | -0.478

— the supplement of paper PMC9112550, “Optimization of the antimicrobial peptide Bac7 by deep mutational scanning” (BMC Biology, 2022)
